Publication PMC9657007

These sequences were tested against T1, Tr1 (Ehrlichia chaffeensis) (UniProt Q2GF81) (assay: Southwestern blot). Details: EMSA: 10 mM Tris-HCl pH 7.5, 50 mM KCl, 5 mM MgCl2, 2.5% glycerol, 1 mM DTT, 50 ug/mL poly dI-dC, 20 fmol probe, room temperature 25 min (20 min in Fig …).
T1 sequence: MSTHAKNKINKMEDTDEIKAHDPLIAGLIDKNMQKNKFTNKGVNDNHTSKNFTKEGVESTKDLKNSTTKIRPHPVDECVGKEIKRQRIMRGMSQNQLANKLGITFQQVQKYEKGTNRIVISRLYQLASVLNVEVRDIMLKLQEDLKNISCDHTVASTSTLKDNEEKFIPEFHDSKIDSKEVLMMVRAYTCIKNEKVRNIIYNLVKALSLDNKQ

Question: For “TACCCGGACAAACTGACTTTCATGTTTAATATAAATTATTGATCCAATCAAGCTAAAAAGTAAATAAATTTTATCTTATATTTCATAAAGCATAATATGTTATTTCTGTATATTATATAATTAGTATACTATTCCAGCAAACTAGATAGAATATATCCATTAAATAACTATTGCATTCACTTTATGCATGATTTATCTTACATAGGTTGCTTTGT (double strand) [tr1 promoter (SWB probe)]”, which binding is on record?
Answer: Its binding is “binds”.

Each sequence was assayed against T2, EcxR (Ehrlichia chaffeensis) (UniProt Q2GG40) (assay: Southwestern blot). Details: EMSA: 10 mM Tris-HCl pH 7.5, 50 mM KCl, 5 mM MgCl2, 2.5% glycerol, 1 mM DTT, 50 ug/mL poly dI-dC, 20 fmol probe, room temperature 25 min (20 min in Fig …).
T2 sequence: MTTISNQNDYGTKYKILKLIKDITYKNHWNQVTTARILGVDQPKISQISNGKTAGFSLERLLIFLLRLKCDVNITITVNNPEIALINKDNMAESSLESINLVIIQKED

Question: “GTACCTAAATCTATACCTATAACAGCCATAAATAGCCCCCTTACATAAAAATCAAAACTATAATCACAGATATAATAACCAAATCATAAGATTACAACCCCATTTAACACAAGTTCATAAATTTATGGCATGCGCTG (double strand) [dnaK promoter (SWB probe)]” was tested. Which binding did it give?
Answer: The binding was “binds”.

Question: With “CTACCTCTATAAAAAAATAAATTATCAGTAGCATCAGATACTACTAGCTAAGATCATATATAATATCAAGAAATCTAATTTCAAGTATCAATCAATAAATTTTATAATACATATTGCACAAATGTTTACAAGGTTAGAACTTTATAGGACCCAGTAGAAATATTATATTACTCTGTAACAGTTTACATAACACATAAAAAATCAATTGACTTGATACTGAAAACATCGTTGATATTTAAGTAGTTAATTTTTTAAGTAAGTTAGCATGCGCTG (double strand) [groES/L promoter (SWB probe)]” as the sequence, how does the binding read?
Answer: The binding was “binds”.

Question: Which binding does the source give for “GGTGTTTTTATAATTTTATTACTAAGATATTTTTTTATTAATAACTATATGCCAATACAGATAGTATAAGTATCTTATAATAAATCCATCATCTTAATGTAAGTAATACATATAACTAATAACAATAATATATTAACATTTTTATAGAATATCTATCATAATCAAACATTAACTAAATTCTCTACTAGCAGTAAATTGAATATCTACAATTTACACGTTCTACTGTTTTGCTTGCCAACTTAATTGATACTGCTTATCATCTGAATATCAAAAGATGATAGGGTACTGT (double strand) [clpB promoter (SWB probe)]” here?
Answer: Its binding is “binds”.

Question: With “TACCCGGACAAACTGACTTTCATGTTTAATATAAATTATTGATCCAATCAAGCTAAAAAGTAAATAAATTTTATCTTATATTTCATAAAGCATAATATGTTATTTCTGTATATTATATAATTAGTATACTATTCCAGCAAACTAGATAGAATATATCCATTAAATAACTATTGCATTCACTTTATGCATGATTTATCTTACATAGGTTGCTTTGT (double strand) [tr1 promoter (SWB probe)]” as the sequence, how does the binding read?
Answer: Its binding is “binds”.

What follows are sequences tested against T2, EcxR (Ehrlichia chaffeensis) (assay: EMSA). Details: EMSA: 10 mM Tris-HCl pH 7.5, 50 mM KCl, 5 mM MgCl2, 2.5% glycerol, 1 mM DTT, 50 ug/mL poly dI-dC, 20 fmol probe, room temperature 25 min (20 min in Fig …).

Question: Which binding does the source give for “ATATAACCTAATAGTGACAAATAAATTAACAATAGTAGAAGTGTCATATAAAAGCAAGTCAGAATATAAATTTTTGTATAAAATATCGGTAACTTTTGTAAGGAAAATTTAATATATTACGTCAG (double strand) [p28-Omp19-P3]” here?
Answer: The binding was “binds”.

Question: For “GGTTTAGCCATTTTAAATGTGTTTAAAAAGAAATCTTTTTGACATTATTGTAAACTTATGATTTTTATTAAGGGGAAGAGTGAACAAAATACTGTTATTAGAAGTTTACAGAAAGTTAACTG (double strand) [p28-Omp14-P2]”, which binding is on record?
Answer: The binding was “no binding”.

Question: With “GTACCTAAATCTATACCTATAACAGCCATAAATAGCCCCCTTACATAAAAATCAAAACTATAATCACAGATATAATAACCAAATCATAAGATTACAACCCCATTTAACACAAGTTCATAAATTTATGAA (double strand) [dnaK promoter EMSA probe]” as the sequence, how does the binding read?
Answer: The binding was “binds”.

Question: How did the binding turn out when “GGTGTTTTTATAATTTTATTACTAAGATATTTTTTTATTAATAACTATATGCCAATACAGATAGTATAAGTATCTTATAATAAATCCATCATCTTAATGTAAGTAATACATATAACTAATAACAATAATATATTAACATTTTTATAGAATATCTATCATAATCAAACATTAACTAAATTCTCTACTAGCAGTAAATTGAATATCTACAATTTACACGTTCTACTGTTTTGCTTGCCAACTTAATTGATACTGCTTATCATCTGAATATCAAAAGATGATAGGGTACTGT (double strand) [clpB promoter EMSA probe]” was run?
Answer: The binding was “binds”.

Question: With “GACTCTAGACTTTTAATTTTATTATTGCCACATGTTAAAAATAATCTAAACTTGTTTTTATTATTGCTGCAGGTAAATAAAAATAGTGGCAAAAGAATGTAGCAATAAGAGGGGGGGGGGGGGGACTAGTTTATAAGTGC (double strand) [p28-Omp19-P1]” as the sequence, how does the binding read?
Answer: Its binding is “no binding”.

Question: With “GTTTTCTGCTTTATTAGAATGATTCCCAAATAAATTTTAATTAATTACTGTTCCGTATTTATTAATATATGTTATAATGTAATTAAATAAGGATACTAGATTTGCTCATAATGCATGTAC (double strand) [p28-Omp14-P3]” as the sequence, how does the binding read?
Answer: The binding was “binds”.

Question: Which binding does the source give for “TTGCTCAACCATAAAATAATGGGAAATTACCTTTTCTAGGAAGTTTCTCATTATTTAACAGTTAACTTTCTGTAAACTTCTAATAACAGTATTTTGTTCACTCTTCCCCTTAATAAAAATCATAAGTTTACAATAATGTCAAAAAGATTTCTTTTTAAACACATTTAAAATGGCTAAACC (double strand) [p28-Omp14-P1]” here?
Answer: The binding was “binds”.

Question: For “GTTCCGTATTTATTAATATATGTTATAATGTAATTAAATAAGGATACTAGATTTGCTCATAATGCATGTACTGAATTTGTGATTTGAAATAACAAGACTTAAATGTCGAATTTAGCTTCTGTCCTAGTGGATAAGTACTTTAGCAAGTGGTAAAAGCAAGTCTACTCATATTTTTATTAATTAAGTAGTAAAGTTAACTATAG (double strand) [p28-Omp14-P4]”, which binding is on record?
Answer: The binding was “binds”.

Question: How did the binding turn out when “TAACTTACTTAAAAAATTAACTACTTAAATATCAACGATGTTTTCAGTATCAAGTCAATTGATTTTTTATGTGTTATGTAAACTGTTACAGAGTAATATAATATTTCTACTGGGTCCTATAAAGTTCTAACCTTGTAAACATTTGTGCAATATGTATTATAAAATTTATTGATTGATACTTGAAATTAGATTTCTTGATATTATATATGATCTTAGCTAGTAGTATCTGATGCTACTGATAATTTATTTTTTTATAGAGGTAG (double strand) [groES/L promoter EMSA probe]” was run?
Answer: Its binding is “binds”.

Question: For “CTTTTGTAAGGAAAATTTAATATATTACGTCAGGTAAGTAATAGCAAAAAAACTGGTTAAGTATAGTATCATGTGTAAAGGTGAGAAAAACAGCAC (double strand) [p28-Omp19-P2]”, which binding is on record?
Answer: The binding was “binds”.

Question: For “CAGGAGTTACTCCATGTGCAAGTAGTATCTTGTAAACACTAGTGTCTTTAACAACTGCAAGAGCTTGTAATAATCTCTCCACAGTTACATAAGTATCCTGATTCCTTTTTGCTAAACTAATAGCTTCTTCTAAAACCTGAGCCATTTCTTTTGATAAATGTATATGACCACTACCACTTCCACTTACAACAGGTAATTTACTTAAGGAGAGTTTTATATCACTGTATATCTTATCAATATCACATCCACATGAAGTCAGCAACA (double strand) [clpB-ORF]”, which binding is on record?
Answer: The binding was “no binding”.

Question: Which binding does the source give for “GATTAATAGATTCTAGGGAACTCTCTGCCATATTGTCTTTGTTAATTAATGCAATTTCTGGGTTATTGACAGTGATTGTTATATTCACATCACATTTTAGACGTAACAAAAATATAAGTAAACGTTCTAATGAAAATCCTGCTGTTTTACCATTACTAATCTGAGATATTTTTGGTTGGTCTACGCCCAGTATCCTTGCTGTGGTTACTTGGTTCCAGTGATTCTTA (double strand) [ecxR-ORF]” here?
Answer: Its binding is “no binding”.

Question: With “GGATAAGTACTTTAGCAAGTGGTAAAAGCAAGTCTACTCATATTTTTATTAATTAAGTAGTAAAGTTAACTATAGATTTTATTAAAATTTTTATTCTAATCACTTTAAATATCAATTACTTTTGTTGTAAATTTGAAAGAAATTTTATATTCTAGAC (double strand) [p28-Omp14-P5]” as the sequence, how does the binding read?
Answer: The binding was “no binding”.
